Experimental data as given in the supplement of paper PMC10567573.

B1: CHMP4C (parent)
chain: TNIRLPNVPSSSLPAQPNRKPGMS
B2: SCNN1D (parent)
chain: RRPSPVLRHLELLDEFARENIDSL

Variants of: B1
Experiment: protein stability index of a GFP-peptide fusion (GPS, HEK-293T) (PSI 1-6); higher = more stable
Conditions: c terminus: a fixed tail appended
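Note: lentivirally expressed fusions sorted by FACS into six bins by GFP to DsRed ratio, PSI derived from sequencing read proportions per bin multiplied by bin number.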

Protein stability index, by site and new letter:
N2: I 3.44; E 5.05; S 4.7; C 3.87
S11: P 4.61; F 4.12; V 4.13; M 3.73; E 4.1
P17: G 4.71; I 3.87; E 4.96; W 3.64; L 4.14; N 4.72
S10: D 4.84; A 4.62; M 4.48; K 4.24
Q16: M 3.7; W 3.34; H 4.44; D 4.24; E 4.69; A 4.7
S12: L 3.44; N 4.68; K 4.44; M 4.33
L5: G 5.1; Q 4.69; N 4.68; Y 4.58; R 4.42; F 4.38; S 4.18
R4: E 4.68; F 4.18; K 3.88; W 2.96; I 3.37; Y 4.24
L13: N 4.52; W 4.45; H 4.25; K 4.46; A 4.88; Y 4.1; M 4.6; C 4.47
V8: L 4.4; C 3.99; A 4.51; D 4.54
T1: Q 4.75; P 4.8; G 4.8; D 4.71
M23: Y 4.7; W 3.96; G 5.2; V 4.82
K20: T 3.92; N 4.41; Q 4.55; E 4.27; Y 4.02
S24: R 4.67; Q 4.69; A 4.48; G 4.14; Y 4.34; E 4.83; W 3.8
P14: I 4.22; M 4.47; E 4.7; F 4.22
P6: G 4.26; A 3.96; Y 2.66
I3: D 4.63; N 4.81; V 4.54; R 4.41
R19: K 4.33; F 4.13; T 4.57; V 4.71; N 4.69
P21: S 4.41; V 4.14; N 4.11; W 3.4; K 4.65; D 4.59; C 4.24
N7: L 4.67; S 4.89
A15: E 4.64; G 4.69; W 4.01; L 4.19; P 4.71; H 4.59; Q 5.06
N18: R 4.69; P 4.58; C 3.97; A 4.45
P9: V 4.71; K 4.78; M 4.36
G22: T 4.21; C 4.4; N 5.03; P 4.24; M 4.2

Variants of: B2
Experiment: as above
Conditions: c terminus: a fixed tail appended

Protein stability index: each site, then its substitutions
R1: A 2.1; C 2; D 2.86; E 3.36; F 1.99; G 2.46; H 2.43; I 2.1; K 2.92; L 2.21; M 2.19; N 2.5; P 2.58; Q 2.69; S 2.63; T 2.38; V 2.36; W 2.18; Y 1.72
R2: A 3.98; C 3.38; D 3.41; E 3.22; F 2.22; G 3.52; H 2.68; I 2.6; K 2.85; L 1.94; M 2.5; N 3.25; P 4.61; Q 3.21; S 4.32; T 3.55; V 2.93; W 1.78; Y 1.63
P3: A 2.35; C 2.73; D 2.74; E 2.38; F 1.88; G 2.75; H 1.96; I 1.96; K 3.06; L 2.42; M 2.26
